Test results reported in patent publication US20190300590A1 (PROTAGONIST THERAPEUTICS, published 2019).
Read-outs that look alike come from different tables or passages of the source. *1 amine or outer side, *2 acyl side, *3 side chain or, on linkers, in order; H or OH if unused. Bridges are numbered along the chain shown (N, C = ends). Primed or numbered codes have the meaning given here. [ ]: non-standard residue; d: D form. Phe(4-OMe)(3) = O-methyl-L-tyrosine (4-methoxy-L-phenylalanine), COc1ccc(C[C@H](N[*:1])C(=O)[*:2])cc1; Phe(4-OMe) = 4-methoxy-L-phenylalanine (O-methyl-L-tyrosine), COc1ccc(C[C@H](N[*:1])C(=O)[*:2])cc1; Phe(4-OMe)(5) = O-methyl-L-tyrosine (4-methoxy-Phe), COc1ccc(C[C@H](N[*:1])C(=O)[*:2])cc1; Phe(4-N3) = [N-]=[N+]=Nc1ccc(C[C@H](N)C(=O)O)cc1; Phe(2,4-Me2) = Cc1ccc(C[C@H](N)C(=O)O)c(C)c1; Phe(4-Br) = N[C@@H](Cc1ccc(Br)cc1)C(=O)O; Phe(4-NH2) = Nc1ccc(C[C@H](N)C(=O)O)cc1; 1Nal = N[C@@H](Cc1cccc2ccccc12)C(=O)O; 2Nal = N[C@@H](Cc1ccc2ccccc2c1)C(=O)O; AEF = NCCOc1ccc(C[C@H](N)C(=O)O)cc1; αMeF = C[C@](N)(Cc1ccccc1)C(=O)O; 4Pal = N[C@@H](Cc1ccncc1)C(=O)O; αMeK = C[C@](N)(CCCCN)C(=O)O; Orn = NCCC[C@H](N)C(=O)O; Abu = CC[C@H](N)C(=O)O; Dap = NC[C@H](N)C(=O)O

T1: IL23R_huFC (human, UniProt Q5VWK5 24-353)
T1 sequence (looked up): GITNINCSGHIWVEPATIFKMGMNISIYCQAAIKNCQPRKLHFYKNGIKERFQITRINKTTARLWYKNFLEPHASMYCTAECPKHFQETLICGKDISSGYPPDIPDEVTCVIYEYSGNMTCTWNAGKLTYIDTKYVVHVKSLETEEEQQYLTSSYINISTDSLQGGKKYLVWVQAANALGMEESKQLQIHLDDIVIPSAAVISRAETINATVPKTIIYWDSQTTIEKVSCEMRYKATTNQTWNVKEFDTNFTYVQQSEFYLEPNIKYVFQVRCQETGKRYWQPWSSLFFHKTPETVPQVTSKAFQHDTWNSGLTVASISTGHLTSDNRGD

T2: IL-23R on human cells (IL-23R-expressing DB cells; human NK cells) (human, UniProt Q5VWK5 24-629)
T2 sequence (looked up): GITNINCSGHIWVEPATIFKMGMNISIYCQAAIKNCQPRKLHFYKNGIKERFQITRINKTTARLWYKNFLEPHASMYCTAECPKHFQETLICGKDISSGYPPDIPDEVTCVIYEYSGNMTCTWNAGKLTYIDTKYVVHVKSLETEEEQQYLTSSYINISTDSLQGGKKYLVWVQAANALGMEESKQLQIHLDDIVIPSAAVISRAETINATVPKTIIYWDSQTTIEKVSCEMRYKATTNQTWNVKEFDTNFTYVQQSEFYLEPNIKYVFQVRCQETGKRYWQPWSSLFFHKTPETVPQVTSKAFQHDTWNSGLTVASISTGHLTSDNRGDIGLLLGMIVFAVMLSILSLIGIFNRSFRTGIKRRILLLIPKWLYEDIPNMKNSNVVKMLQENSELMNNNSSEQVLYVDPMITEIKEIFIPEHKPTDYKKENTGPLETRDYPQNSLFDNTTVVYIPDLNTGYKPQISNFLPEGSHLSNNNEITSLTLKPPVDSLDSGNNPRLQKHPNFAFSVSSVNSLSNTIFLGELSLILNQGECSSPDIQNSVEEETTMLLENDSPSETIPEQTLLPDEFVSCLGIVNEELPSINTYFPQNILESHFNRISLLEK


How the values were obtained:
IL23R_huFC [1] = target: T1, IL23R_huFC; assay: human ELISA vs IL-23
Rat IL-23R_huFC [2] = target: Rat IL-23R_huFC (rat); assay: rat ELISA vs IL-23
[3] = target: T2, IL-23R on human cells …; assay: cell-based or functional assay
IL23R_huFC [4] = target: T1, IL23R_huFC; assay: human ELISA vs IL-23; remark: listed apart in the source
Rat IL-23R_huFC [5] = target: Rat IL-23R_huFC (rat); assay: rat ELISA vs IL-23; remark: listed apart in the source
IL23R_huFC [6] = target: T1, IL23R_huFC; assay: human ELISA vs IL-23; remark: listed apart in the source

| Binder | IC50 (Rat IL-23R_huFC [2]) [nM] | IC50 (IL23R_huFC [4]) [nM] | also measured |
| --- | --- | --- | --- |
| Ac-[Abu]QTWQC[AEF]W[Orn][Dap](Ac)NG-NH2 (thioether 1-6) [Ac-Cyclo-[[Abu]-QTWQC]-[Phe[4-(2-aminoethoxy)]]-W-[Orn]-[Dap(Ac)]-NG-NH2] | – | – | IC50 (IL23R_huFC [1]): 100 to 1000 nM |
| XQTWQCFWXENG (as bracketed in name; thioether cyclo) [Ac-Cyclo-[[Abu]-QTWQC]-[Phe(4-OMe)]-W-[α-MeOrn]-ENG-NH2] | 25 to 100 | 25 to 100 | pStat3 HTRF IC50 [3]: < 10 nM |
| XQTWQCYWXKNG (as bracketed in name; thioether cyclo) [Ac-Cyclo-[[Abu]-QTWQC-YW-[α-MeOrn]-[Lys(Ac)]-NG-NH2] | 25 to 100 | – | – |
| Ac-[dE][Abu]QTWQC[AEF][2Nal][αMeK]ENN-NH2 (thioether 2-7) [Ac-(D)Glu-[Cyclo-[[Abu]-QTWQC]-[Phe[4-(2-aminoethoxy)]]-[2-Nal]-[α-MeLys]-ENN-NH2] | – | – | IC50 (Rat IL-23R_huFC [5]): < 10 nM; IC50 (IL23R_huFC [6]): < 10 nM; pStat3 HTRF IC50 [3]: < 10 nM |
| Ac-[Abu]QTWQC[Phe(4-OMe)(3)][2Nal][αMeK]K(Ac)NGE-NH2 (thioether 1-6) [Ac-Cyclo-[[Abu]-QTWQC]-[Phe(4-OMe)]-[2-Nal][α-MeLys]-[Lys(Ac)]-NGE-NH2] | 25 to 100 | 25 to 100 | pStat3 HTRF IC50 [3]: < 10 nM |
| Ac-[Abu]QTWQC[AEF]W[Orn][Dap]NG-NH2 (thioether 1-6) [Ac-Cyclo-[[Abu]-QTWQC]-[Phe[4-(2-aminoethoxy)]]-W-[Orn]-[Dap]-NG-NH2] | – | – | IC50 (IL23R_huFC [1]): 100 to 1000 nM |
| Ac-[Abu]QTWQC[Phe(4-OMe)][1Nal][αMeK]K(Ac)NG-NH2 (thioether 1-6) [Ac-Cyclo-[[Abu]-QTWQC]-[Phe(4-OMe)]-[1-Nal][α-MeLys]-[Lys(Ac)]-NG-NH2] | 25 to 100 | – | – |
| Ac-[Abu]QT[Phe(2,4-Me2)]QC[AEF][2Nal][αMeK]ENG-NH2 (thioether 1-6) [Ac-Cyclo-[[Abu]-QT-[Phe(2,4-Me2)]-QC]-[Phe[4-(2-aminoethoxy)]]-[2-Nal]-[α-MeLys]-ENG-NH2] | – | – | IC50 (IL23R_huFC [1]): 100 to 1000 nM |
| Ac-[Abu]QT[αMeF]QC[AEF][2Nal][αMeK]ENG-NH2 (thioether 1-6) [Ac-Cyclo-[[Abu]-QT-[α-MePhe]-QC]-[Phe[4-(2-aminoethoxy)]]-[2-Nal]-[α-MeLys]-ENG-NH2] | – | – | IC50 (IL23R_huFC [1]): 100 to 1000 nM |
| Ac-[Abu]QTWQC[4Pal][2Nal][αMeK]K(Ac)NG-NH2 (thioether 1-6) [Ac-Cyclo-[[Abu]-QTWQC]-[4-Pyridylalanine]-[2-Nal][α-MeLys]-[Lys(Ac)]-NG-NH2] | – | – | IC50 (IL23R_huFC [1]): 100 to 1000 nM |

More lines, main results first:

| IC50 (Rat IL-23R_huFC [2]) [nM] | IC50 (IL23R_huFC [4]) [nM] | Binder | also measured |
| --- | --- | --- | --- |
| 25 to 100 | – | Ac-[Abu]QTWQC[Phe(4-N3)][2Nal][αMeK]K(Ac)NG-NH2 (thioether 1-6) [Ac-Cyclo-[[Abu]-QTWQC]-[Phe-4-N3]-[2-Nal]-[α-MeLys]-[Lys(Ac)]-NG-NH2] | – |
| 25 to 100 | 25 to 100 | Ac-[Abu]STWQC[Phe(4-OMe)(5)][2Nal][αMeK]K(Ac)NGE-NH2 (thioether 1-6) [Ac-Cyclo-[[Abu]-STWQC]-[Phe(4-OMe)]-[2-Nal][α-MeLys]-[Lys(Ac)]-NGE-NH2] | – |
| 25 to 100 | 25 to 100 | Ac-[Abu]QTWQC[2Nal][2Nal][αMeK]ENG-NH2 (thioether 1-6) [Ac-Cyclo-[[Abu]-QTWQC]-[2-Nal]-[2-Nal]-[α-MeLys]-ENG-NH2] | – |
| 25 to 100 | 25 to 100 | Ac-[Abu]QTWQC[Phe(4-OMe)][1Nal][αMeK]ENG-NH2 (thioether 1-6) [Ac-Cyclo-[[Abu]-QTWQC]-[Phe(4-OMe)]-[1-Nal]-[α-MeLys]-ENG-NH2] | – |
| 25 to 100 | 25 to 100 | Ac-[Abu]QTWQC[Phe(4-OMe)(3)][2Nal][αMeK]K(Ac)QG-NH2 (thioether 1-6) [Ac-Cyclo-[[Abu]-QTWQC]-[Phe(4-OMe)]-[2-Nal][α-MeLys]-[Lys(Ac)]-QG-NH2] | pStat3 HTRF IC50 [3]: < 10 nM |
| 25 to 100 | 25 to 100 | Ac-[Abu]QTWQC[Phe(4-OMe)][2Nal][αMeK]VNG-NH2 (thioether 1-6) [Ac-Cyclo-[[Abu]-QTWQC]-[Phe(4-OMe)]-[2-Nal]-[α-MeLys]-VNG-NH2] | pStat3 HTRF IC50 [3]: < 10 nM |
| 25 to 100 | – | Ac-[Abu]QTWQC[Phe(4-NH2)]W[αMeK]ENG-NH2 (thioether 1-6) [Ac-Cyclo-[[Abu]-QTWQC]-[Phe(4-NH2)]-W-[α-MeLys]-ENG-NH2] | – |
| 25 to 100 | – | Ac-[Abu]QTWQC[Phe(4-Br)]W[αMeK]ENG-NH2 (thioether 1-6) [Ac-Cyclo-[[Abu]-QTWQC]-[Phe(4-Br)] W-[α-MeLys]-ENG-NH2] | – |
